This is an account of results in paper PMC11742450, “Engineering a membrane protein chaperone to ameliorate the proteotoxicity of mutant huntingtin” (Nature Communications, 2025).

The assay concerns the target T1, His6-hsPEX19-WT (human, UniProt P40855 1-299).
T1 construct: human PEX19 (hsPEX19); the human PEX19 gene cloned into pET-33b; Made in E. coli, so probably not farnesylated (surmise); also called human PEX19; His6-PEX19; source: E. coli BL21 Star (DE3), purified (Ni-NTA)
T1 sequence (looked up): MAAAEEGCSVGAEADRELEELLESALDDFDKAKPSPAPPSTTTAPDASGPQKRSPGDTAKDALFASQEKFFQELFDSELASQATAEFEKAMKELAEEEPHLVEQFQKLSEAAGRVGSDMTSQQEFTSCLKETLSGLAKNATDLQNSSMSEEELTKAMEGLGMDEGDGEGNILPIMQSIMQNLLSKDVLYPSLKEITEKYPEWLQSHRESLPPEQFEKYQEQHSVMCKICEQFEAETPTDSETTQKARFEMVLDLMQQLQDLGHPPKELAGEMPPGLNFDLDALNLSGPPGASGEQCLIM
The assay can be described thus: pull-down; His6-PEX19 pulldown with PEX26; input, flowthrough and elution analysed by Western blot with Strep (PEX26) and PEX19 antibodies; hsPEX19 at about 3-fold the endogenous concentration. The note with it: both partners purified. Background: In western blotting, separated proteins are transferred to a membrane and probed.

B1: 2 × Strep-SUMO-PEX26 (237-305aa) (domain or fragment, UniProt Q7Z412 237-305, looked up)
chain: RQLWDSAVSHFFSLPFKKSLLAALILCLLVVRFDPASPSSLHFLYKLAQLFRWIRKAAFSRLYQLRIRD
For the molecule B1, the binding result is “binds”.
